In article PMC9593060 one finds binding data, which are given here for one sequence.

The target of this series is T1, YycF (Staphylococcus aureus (ATCC29213?)) (UniProt Q9RDT5).
T1 sequence: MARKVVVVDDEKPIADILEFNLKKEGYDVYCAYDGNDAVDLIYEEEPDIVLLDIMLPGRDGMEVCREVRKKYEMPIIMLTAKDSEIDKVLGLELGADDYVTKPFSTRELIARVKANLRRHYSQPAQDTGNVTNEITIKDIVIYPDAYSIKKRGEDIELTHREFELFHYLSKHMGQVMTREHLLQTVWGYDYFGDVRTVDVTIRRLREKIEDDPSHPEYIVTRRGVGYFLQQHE
In words: EMSA. Particulars: binding buffer not stated.

Turning to “TGTGAAATATCAATTTGATTGAAAATTAGACAAAAATAAAGAAATGACTTCAACATAATCATCAAAGTCATTTCGTTGAGTTGACTACTGCCAAGATAACATCGTCACGACTAGGACATTGAATTATGTCCCAGACTCATCGACT (double strand) [PcodY (codY promoter region)]”, the binding entry is on record as “binds”.
